Laboratory results published in patent US20200347127A1 (CRESCENDO BIOLOGICS, published 2020).
Where two headings read alike, the source gives them in different places.

T1: IL-17C (UniProt Q9P0M4 19-197, limits assumed)
T1 sequence (looked up): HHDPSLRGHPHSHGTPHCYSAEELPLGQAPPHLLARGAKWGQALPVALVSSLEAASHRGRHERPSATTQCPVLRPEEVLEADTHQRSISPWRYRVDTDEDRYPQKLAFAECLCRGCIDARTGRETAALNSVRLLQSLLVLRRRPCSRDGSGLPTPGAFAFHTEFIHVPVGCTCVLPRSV

T2: IL-17F (UniProt Q96PD4 31-163, limits assumed)
T2 sequence (looked up): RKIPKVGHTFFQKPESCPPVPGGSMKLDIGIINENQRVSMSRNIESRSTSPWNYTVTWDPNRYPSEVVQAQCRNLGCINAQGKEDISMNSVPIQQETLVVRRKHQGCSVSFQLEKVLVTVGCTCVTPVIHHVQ

T3: murine IL-17A (murine, UniProt Q62386 26-158, limits assumed)
T3 sequence (looked up): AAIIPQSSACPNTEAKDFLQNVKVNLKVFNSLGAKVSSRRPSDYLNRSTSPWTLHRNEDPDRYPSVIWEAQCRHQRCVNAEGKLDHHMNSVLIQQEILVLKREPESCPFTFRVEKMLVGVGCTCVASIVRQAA


Columns and labels:
recombinant human IL-17A [1] = target: T4, recombinant human IL-17A (human, UniProt Q16552 24-155); test: BIAcore single-cycle kinetics on immobilised IL-17A, 1:1 binding fit
T4 construct: Bought recombinant protein (Peprotech AF-200-17); also called Peprotech AF-200-17
T4 sequence (Q16552 24-155): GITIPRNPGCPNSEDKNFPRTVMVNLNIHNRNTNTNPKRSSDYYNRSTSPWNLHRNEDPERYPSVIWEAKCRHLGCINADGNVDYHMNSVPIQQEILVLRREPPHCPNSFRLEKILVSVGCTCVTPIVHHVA

recombinant human IL-17A [2] = target: T4, recombinant human IL-17A; test: cell-based or functional assay
recombinant human IL-17A [3] = target: T4, recombinant human IL-17A; test: SPR (BIAcore T200), IL-17A coupled to CM5 chip, single-cycle kinetics
recombinant IL-17RA-Fc = target: T5, recombinant IL-17RA-Fc (UniProt Q96F46 33-320); test: specificity ELISA on coated antigen, VH concentration not given
T5 construct: Bought reagent; also called R & D systems cat #177-IR-100; receptor; not shown: Fc part of the bought fusion, not described

IL-17C = target: T1, IL-17C; test: as above
IL-17F = target: T2, IL-17F; test: as above
murine IL-17A = target: T3, murine IL-17A; test: as above
recombinant human IL-17A [4] = target: T4, recombinant human IL-17A; test: competition ELISA, IL-17A binding to coated IL-17RA-Fc
recombinant human IL-17A [5] = target: T4, recombinant human IL-17A; test: SPR (BIAcore T200), IL-17A coupled to CM5 chip, single-cycle kinetics; remark: listed apart in the source
recombinant human IL-17A [6] = target: T4, recombinant human IL-17A; test: cell-based or functional assay; remark: listed apart in the source
recombinant human IL-17A [7] = target: T4, recombinant human IL-17A; test: competition ELISA, IL-17A binding to coated IL-17RA-Fc; remark: listed apart in the source
recombinant human IL-17A [8] = target: T4, recombinant human IL-17A; test: SPR (BIAcore T200), IL-17A coupled to CM5 chip, single-cycle kinetics; remark: listed apart in the source
recombinant human IL-17A [9] = target: T4, recombinant human IL-17A; test: cell-based or functional assay; remark: listed apart in the source

Binder	IC50 (recombinant human IL-17A [4]) [nM]	Kd (recombinant human IL-17A [5]) [nM]	koff (recombinant human IL-17A [5]) [s⁻¹]	kon (recombinant human IL-17A [5]) [M⁻¹ s⁻¹]	Cell assay IC50 (nM), IL-17A-induced IL6 release from HT1080 (recombinant human IL-17A [6]) [nM]	IC50 (recombinant human IL-17A [7]) [nM]	Kd (recombinant human IL-17A [8]) [nM]	koff (recombinant human IL-17A [8]) [s⁻¹]	kon (recombinant human IL-17A [8]) [M⁻¹ s⁻¹]	also measured
VH 1.2.3 (clone 1.2 with C terminal extension) (VHH, Human single VH domain) VHH: EVQLVESGGGLVQPGGSLRLSCAASGFTFSSYSMYWVRQAPGKGLEWVAEIKQDGSVQYYVSDVKGRFTISRDNAKNSLYLQMNSLRAEDTAVYYCAKGEILPLYFDYWGQGTLVTVSS	–	–	–	–	–	–	–	–	–	Kd (recombinant human IL-17A [1]): 0.62 nM; koff (recombinant human IL-17A [1]): 0.000465 s⁻¹; kon (recombinant human IL-17A [1]): 748000 M⁻¹ s⁻¹
VH 1.19.1 (clone 1.19 expressed from phagemid vector: with linker residues and His tag) (VHH, Human single VH domain) VHH: EVQLVESGGGLVQPGGSLRLSCATSGFTFSSYGMYWVRQAPGKGLEWVAEIKQDGSEKYYVDSVKGRFTISRDNAKNSLYLQMNSLRAEDTAVYYCAKGEILPLYFDYWGQGTLVTVSS	–	–	–	–	–	–	–	–	–	Cell assay IC50 (nM), IL-17A-induced IL6 release from HT1080 (recombinant human IL-17A [2]): 1.2 nM; Kd (recombinant human IL-17A [3]): 0.215 nM; koff (recombinant human IL-17A [3]): 0.000153 s⁻¹; kon (recombinant human IL-17A [3]): 714000 M⁻¹ s⁻¹; binding result (recombinant IL-17RA-Fc): no binding; binding result (IL-17C): no binding; binding result (IL-17F): no binding; binding result (murine IL-17A): binds
Family 4 (clone 4.1) (VHH, Human single VH domain) VHH: QVQLVESGGGLVQPGGSLRLSCAASGFTFSSYWMNWVRQAPGKGLEWVATIKQDGSEKYYVDSVKGRFTISRDNATNSLFLQMNSLRAEDTAVYYCARGDTIFDGAFDIWGQGTMVTVSS	3140	493	0.00289	5860	–	–	–	–	–	–
Family 5 (clone 5.1) (VHH, Human single VH domain) VHH: EVQLVESGGGLVQPGGSLRLSCAASGFTFSSYWMSWVRQAPGKGLEWVANIKQDGSEKYYVDSVKGRFTISRDNAKNSLYLQMNSLRAEDTAVYYCAHGQWPFFDYWGQGTMVTVSS	337	166	0.0505	304000	–	–	–	–	–	–
Clone 3.3 (VHH, Human single VH domain) VHH: QVQLVQSGAEVKKPGASVKVSCAASGYTFTDYYLHWVRQAPGQGLEWMGWINPNTGTTKYAREFEGRVTMTRDTSISTAYMELSRLRSDDTAVYYCASMDRDYYDTSGYFGWFDSWGQGTLVTVSS	–	–	–	–	106	271	29	0.00285	99800	–
Clone 3.5 (VHH, Human single VH domain) VHH: QVQLVQSGAEVKKPGASVKVSCAASGYTFTDYYLHWVRQAPGQGLEWMGWINPNTGTTKYAREFEGRVTMTRDTSISTAYMELSRLRSDDTAVYYCASLDRDWRSPNDYFGWFDSWGQGTLVTVSS	–	–	–	–	26	4	2.2	0.000619	281000	–
Clone 3.6 (VHH, Human single VH domain) VHH: QVQLVQSGAEVKKPGASVKVSCAASGYTFTDYYLHWVRQAPGQGLEWMGWINPNTGTTKYAREFEGRVTMTRDTSISTAYMELSRLRSDDTAVYYCASLDRDWRSPNDYYGWFDSWGQGTLVTVSS	–	–	–	–	28	3	0.838	0.00048	573000	–
Family 2 (clone 2.1) (VHH, Human single VH domain; also called VH 2.1.1) VHH: QVQLVESGGGLVQPGGSLRLSCAASGFTFSSYGMGWVRQAPGKGLEWVAKIKQDGSEKDYVDSVKGRFTISRDNAKKSLFLQMNSLRAEDTAVYYCARESIFGIPEDWGQGTLVTVSS	32	2	0.00247	1.22e+06	–	–	–	–	–	Cell assay IC50 (nM), IL-17A-induced IL6 release from HT1080 (recombinant human IL-17A [9]): 8.3 nM
